One block for each substance: values may come before it.
Legend:
[1] = target: N-terminal NanoLuc-tagged VEGFR2 (wild type) (UniProt P35968); test: FRET or BRET; NanoBRET time course, intact HEK293T cells transiently transfected with wild-type or tyrosine phosphorylation-deficient NanoLuc-VEGFR2; 3 or 20 nM VEGF121a-TMR; every 30 s at 37°C
[2] = target: tyrosine phosphorylation-deficient NanoLuc-VEGFR2 (UniProt P35968); test: as above
[3] = target: N-terminal NanoLuc-tagged VEGFR2 (wild type) (UniProt P35968); test: FRET or BRET; NanoBRET kinetics, membranes from NanoLuc-VEGFR2 HEK293T cells (10 μg per well); five concentrations of fluorescent ligand (1–20 nM); every 30 s for 90 min at 37°C; KD kinetic (koff/kon)
[4] = target: tyrosine phosphorylation-deficient NanoLuc-VEGFR2 (UniProt P35968); test: FRET or BRET; NanoBRET kinetics, membranes from a stable cell line expressing tyrosine phosphorylation-deficient NanoLuc-VEGFR2; four concentrations of VEGF121a-TMR (3–20 nM), 90 min at 37°C; KD kinetic (koff/kon)
[5] = target: N-terminal NanoLuc-tagged VEGFR2 (wild type) (UniProt P35968); test: FRET or BRET; NanoBRET saturation binding, membranes from NanoLuc-VEGFR2 HEK293T cells (5 μg per well); increasing fluorescent ligand with or without 100 nM corresponding unlabelled ligand; 60 min, 37°C; HeBSS/0.1% BSA pH 7.4
[6] = target: N-terminal NanoLuc-tagged VEGFR2 (wild type) (UniProt P35968); test: FRET or BRET; NanoBRET kinetics, membranes from NanoLuc-VEGFR2 HEK293T cells (10 μg per well); five concentrations of fluorescent ligand (1–20 nM); every 30 s for 90 min at 37°C; KD kinetic (koff/kon); remark: listed apart in the source
[7] = target: NanoLuc-VEGFR2 (Homo sapiens) (UniProt P35968); test: NanoBRET kinetics, intact cells; details: cited from earlier work
[8] = target: N-terminal NanoLuc-tagged VEGFR2 (wild type) (UniProt P35968); test: FRET or BRET; NanoBRET displacement, membranes from NanoLuc-VEGFR2 HEK293T cells (5 μg per well); five fixed concentrations of fluorescent ligand with increasing VEGF-Ax (0.03–30 nM); 60 min, 37°C; Ki by Cheng–Prusoff
[9] = target: N-terminal NanoLuc-tagged VEGFR2 (wild type) (UniProt P35968); test: FRET or BRET; NanoBRET saturation binding, wild-type NanoLuc-VEGFR2 membranes (5 μg per well), HeBSS/0.1% BSA pH 6.0 (5.8–6.2); with or without 100 nM VEGF165b; 60 min, 37°C
[10] = target: N-terminal NanoLuc-tagged VEGFR2 (wild type) (UniProt P35968); test: FRET or BRET; NanoBRET saturation binding, wild-type NanoLuc-VEGFR2 membranes (5 μg per well), HeBSS/0.1% BSA pH 7.4 (matched with pH 6.0); with or without 100 nM VEGF165b; 60 min, 37°C
[11] = target: N-terminal NanoLuc-tagged VEGFR2 (wild type) (UniProt P35968); test: FRET or BRET; NanoBRET kinetics, NanoLuc-VEGFR2 membranes preincubated with 0.01% DMSO (30 min, 37°C); four concentrations of VEGF165b-TMR (3–20 nM), 90 min at 37°C; KD kinetic (koff/kon)
[12] = target: N-terminal NanoLuc-tagged VEGFR2 (wild type) (UniProt P35968); test: FRET or BRET; NanoBRET kinetics, NanoLuc-VEGFR2 membranes preincubated with 1 μM cediranib (30 min, 37°C); four concentrations of VEGF165b-TMR (3–20 nM), 90 min at 37°C; KD kinetic (koff/kon)
[13] = target: N-terminal NanoLuc-tagged VEGFR2 (wild type) (UniProt P35968); test: FRET or BRET; NanoBRET kinetics, wild-type NanoLuc-VEGFR2 membranes (10 μg per well), HeBSS/0.1% BSA pH 6.0 (5.8–6.2); four concentrations of VEGF165b-TMR (3–20 nM), 37°C; KD kinetic (koff/kon)
[14] = target: N-terminal NanoLuc-tagged VEGFR2 (wild type) (UniProt P35968); test: FRET or BRET; NanoBRET kinetics, wild-type NanoLuc-VEGFR2 membranes (10 μg per well), HeBSS/0.1% BSA pH 7.4 (matched with pH 6.0); four concentrations of VEGF165b-TMR (3–20 nM), 37°C; KD kinetic (koff/kon)
[15] = target: N-terminal NanoLuc-tagged VEGFR2 (wild type) (UniProt P35968); test: FRET or BRET; NanoBRET kinetics, intact HEK293T cells stably expressing NanoLuc-VEGFR2, pretreated with 0.01% DMSO (30 min, 37°C); four concentrations of VEGF165b-TMR (3–20 nM), every 30 s for 90 min at 37°C; constants from a global association fit to the initial 20 min; KD kinetic (koff/kon)
[16] = target: N-terminal NanoLuc-tagged VEGFR2 (wild type) (UniProt P35968); test: FRET or BRET; NanoBRET kinetics, intact HEK293T cells stably expressing NanoLuc-VEGFR2, pretreated with 1 μM cediranib (30 min, 37°C); four concentrations of VEGF165b-TMR (3–20 nM), every 30 s for 90 min at 37°C; constants from a global association fit to the initial 20 min; KD kinetic (koff/kon)

VEGF-Ax, sequence (P15692 whole entry): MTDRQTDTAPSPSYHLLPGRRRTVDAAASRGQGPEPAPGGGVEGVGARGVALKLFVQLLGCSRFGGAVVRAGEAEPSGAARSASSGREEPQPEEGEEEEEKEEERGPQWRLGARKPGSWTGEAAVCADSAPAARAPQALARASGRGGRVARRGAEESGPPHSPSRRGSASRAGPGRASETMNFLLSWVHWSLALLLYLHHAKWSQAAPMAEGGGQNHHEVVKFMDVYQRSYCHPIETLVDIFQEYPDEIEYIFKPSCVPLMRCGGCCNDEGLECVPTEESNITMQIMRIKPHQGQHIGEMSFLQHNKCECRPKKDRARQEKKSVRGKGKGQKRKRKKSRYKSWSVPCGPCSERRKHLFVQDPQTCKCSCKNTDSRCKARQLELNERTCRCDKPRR
VEGF165a-TMR, sequence (P15692 whole entry): as above

Substance: VEGF121a-TMR (from UniProt P15692-9 1-147) (ligand)
AUC of the NanoBRET time course at 3 nM [1]: 2.61 | AUC of the NanoBRET time course at 20 nM [1]: 7.28 | AUC of the NanoBRET time course at 3 nM [2]: 3.54 | AUC of the NanoBRET time course at 20 nM [2]: 9.79 | Kd [3]: 3.85 nM | koff [3]: 0.000317 s⁻¹ | kon [3]: 85500 M⁻¹ s⁻¹ | residence time [3]: 52.6 min | Kd [4]: 6.85 nM | koff [4]: 0.000617 s⁻¹ | kon [4]: 104000 M⁻¹ s⁻¹ | residence time [4]: 27 min | Kd [5]: 2.58 nM

Substance: VEGF165a-TMR (from UniProt P15692)
Kd [7]: 6.64 nM

Substance: VEGF-Ax (ligand)
pKi (fluorescent probe VEGF121a-TMR) [8]: 10.3 | pKi (fluorescent probe VEGF165a-TMR) [8]: 10.2 | pKi (fluorescent probe VEGF165b-TMR) [8]: 9.96

The next lines start with the values.

Kd [3]: 2.21 nM | Kd [6]: 2.4 nM | Kd [5]: 0.31 nM
Substance: VEGF165a-TMR (from UniProt P15692-4 1-191) (ligand)

Kd [9]: 4.43 nM | Kd [10]: 5.29 nM | Kd [11]: 9.68 nM | koff [11]: 0.000383 s⁻¹ | kon [11]: 44800 M⁻¹ s⁻¹ | residence time [11]: 43.5 min | Kd [12]: 8 nM | koff [12]: 0.00035 s⁻¹ | kon [12]: 45700 M⁻¹ s⁻¹ | residence time [12]: 47.6 min | Kd [13]: 13.3 nM | koff [13]: 0.000983 s⁻¹ | kon [13]: 73200 M⁻¹ s⁻¹ | residence time [13]: 17 min | Kd [3]: 9.21 nM | koff [3]: 0.000483 s⁻¹ | kon [3]: 61500 M⁻¹ s⁻¹ | residence time [3]: 34.5 min | Kd [14]: 10.2 nM | koff [14]: 0.000383 s⁻¹ | kon [14]: 39000 M⁻¹ s⁻¹ | residence time [14]: 43.5 min | Kd [5]: 5.55 nM | AUC of the NanoBRET time course at 5 nM [15]: 0.71 | AUC of the NanoBRET time course at 20 nM [15]: 1.8 | Kd [15]: 19.8 nM | koff [15]: 0.00135 s⁻¹ | kon [15]: 71000 M⁻¹ s⁻¹ | residence time [15]: 12.3 min | AUC of the NanoBRET time course at 5 nM [16]: 0.77 | AUC of the NanoBRET time course at 20 nM [16]: 2.04 | Kd [16]: 43.6 nM | koff [16]: 0.00152 s⁻¹ | kon [16]: 43800 M⁻¹ s⁻¹ | residence time [16]: 11 min
Substance: VEGF165b-TMR (from UniProt P15692-8 1-191) (ligand)
